According to article doi:10.1101/2020.10.30.361790:
Square brackets hold non-standard residues; d marks the D form. Ends that are not written are not given here. * marks the point of attachment. Biotin = O=C1N[C@H]2[C@H](CS[C@H]2CCCCC(=O)*)N1; pY = N[C@@H](Cc1ccc(OP(=O)(O)O)cc1)C(=O)O; Ahx = NCCCCCC(=O)O

Experiments:
[1] = biological target: fluorescein-ahx-ahx-EPQpYEEIPIYL; test: fluorescence polarisation
[2] = biological target: biotin-ahx-ahx-EPQpYEEIPIYL; test: BLI
[3] = biological target: fluorescein-ahx-ahx-GGpYGG; test: fluorescence polarisation
[4] = biological target: 9 of the 22 variants that have the K8L mutation (His-tag proteins); test: ELISA
[5] = biological target: Fyn SH2 triple mutant superbinder (T4V/S6A/K8L), His-tag protein (human); test: ELISA
[6] = biological target: Fyn SH2 variant V10 (T4V/K8L), His-tag protein (human); test: ELISA
[7] = biological target: Fyn SH2 variant V13 (T3S/T4R/S6A/K8L), His-tag protein (human); test: ELISA
[8] = biological target: Fyn SH2 variant V17 (T4N/A5S/K8L), His-tag protein (human); test: ELISA
[9] = biological target: Fyn SH2 variant V24 (T3S/T4S/S6A/K8L), His-tag protein (human); test: ELISA
[10] = biological target: Fyn SH2 variant V3 (T3S/T4W/A5G), His-tag protein (human); test: ELISA

| Molecule | Kd [1] [nM] | Kd [2] [nM] | koff [2] [s⁻¹] | Kd [3] [nM] | also measured |
| --- | --- | --- | --- | --- | --- |
| wild type human Fyn SH2 domain (Cys-less), His-tag protein (from UniProt P06241 149-246) (domain or fragment) | 327 | 154 | 0.01 | – | kon [2]: 64800 M⁻¹ s⁻¹ |
| Fyn SH2 variant V24 (T3S/T4S/S6A/K8L), His-tag protein (designed binder) | 23 | – | – | 2570 | – |
| Fyn SH2 variant V13 (T3S/T4R/S6A/K8L), His-tag protein (designed binder) | 12 | – | – | 620 | – |
| Fyn SH2 variant V10 (T4V/K8L), His-tag protein (designed binder) | 32 | – | – | 2700 | – |
| Fyn SH2 variant V3 (T3S/T4W/A5G), His-tag protein (designed binder) | 38 | 55 | 0.000463 | 1630 | – |
| Fyn SH2 triple mutant superbinder (T4V/S6A/K8L), His-tag protein (designed binder) | 20 | 55 | 0.000888 | 680 | kon [2]: 16300 M⁻¹ s⁻¹ |
| Fyn SH2 variant V17 (T4N/A5S/K8L), His-tag protein (designed binder) | < 40 | – | – | – | fold affinity increase over the wild type Fyn SH2 domain [1]: 4 fold; fold weaker than the triple mutant [1]: 4 fold |
| {Biotin-Ahx-Ahx}-EPQ[pY]EEIPIYL [biotin-ahx-ahx-EPQpYEEIPIYL] | – | – | – | – | EC50 [4]: 21 to 500 nM; EC50 [5]: 21 nM; EC50 [6]: 175 nM; EC50 [7]: < 200 nM; EC50 [8]: < 200 nM; EC50 [9]: < 200 nM; EC50 [10]: 15 nM |
